The supplement of paper PMC12764529
± gives the half width of the 95% confidence interval.

Columns and labels:
[1] = folding stability dG unfold from chymotrypsin proteolysis; higher = more stable
Method in brief: (§1)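 Unfolding free energy was derived, per protease or combined, against a sequence-predicted unfolded-state K50 and a shared folded-state K50, starting from K50 inferred by Bayesian fitting of sequencing counts. Digestion with trypsin and chymotrypsin was carried out on designed mini-proteins under 80 residues without cysteine in a PA-tagged cDNA display construct. Only designs with AlphaFold2 dimer inter-PAE above 15 were kept.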

[2] = folding stability dG unfold from trypsin proteolysis; higher = more stable
Method in brief: as §1

[3] = folding stability dG unfold (combined trypsin and chymotrypsin); higher = more stable
Method in brief: as §1

Sequence: SAGGSKLKNLKSKPFPITFENGGKVTLNVVNIPKSSKPVVNITVIEPNSGKKKTFTVPLEEAKNLLSAGGSA [r2_366_TrMRF]
- folding stability dG unfold [1]: 1.16 ± 0.12 kcal/mol
- folding stability dG unfold [2]: 0.394 ± 0.071 kcal/mol
- folding stability dG unfold [3]: 0.869 ± 0.089 kcal/mol

Sequence: SAGGSAGGSAGKMYKLTIEKDGKEIEIIVSEDELKEIAKKLGLPPNAKIKVEKVSPEELKSAGGSAGGSAGG [r17_395_TrROS_Hall]
- folding stability dG unfold [1]: 3.8 ± 0.14 kcal/mol
- folding stability dG unfold [2]: 2.21 ± 0.095 kcal/mol
- folding stability dG unfold [3]: 3.27 ± 0.17 kcal/mol

Sequence: SAGGSAGGSMIIRIKTENGEEIEIEAESEEEAKKAAEELKKELEEKGYKIEEVEIYEIPEEELSAGGSAGGS [r12_301_TrROS_Hall]
- folding stability dG unfold [1]: 2.32 ± 0.13 kcal/mol
- folding stability dG unfold [2]: 1.13 ± 0.076 kcal/mol
- folding stability dG unfold [3]: 2.05 ± 0.26 kcal/mol

Sequence: SAGGGRVAVLKVEVRNPETGETTEVELVLPLPPEMTPEEAEEAAREAARTLAESTGVEVEIKSVELLSAGGS [r8_312_TrMRF]
- folding stability dG unfold [1]: 3.278 ± 0.031 kcal/mol
- folding stability dG unfold [2]: 3.77 ± 0.068 kcal/mol
- folding stability dG unfold [3]: 3.46 ± 0.053 kcal/mol

Sequence: SAGGPLVVEAKVEGDTVTIRLPNGEEFTAHPDATLFLPNGERVFFEPVSDDVVIATVVPLPEDAEFPSAGGS [r16_277_TrMRF]
- folding stability dG unfold [1]: -0.0303 ± 0.13 kcal/mol
- folding stability dG unfold [2]: 0.359 ± 0.034 kcal/mol
- folding stability dG unfold [3]: 0.212 ± 0.085 kcal/mol

Sequence: SAGGSAGGSMVLNFEDTKPGVSPEEAAARVAAKIRAEHDVAVLGVEVETSPTGGYHITITVDPSAGGSAGGS [r12_781_JUSTAS]
- folding stability dG unfold [1]: 0.272 ± 0.08 kcal/mol
- folding stability dG unfold [2]: 0.325 ± 0.059 kcal/mol
- folding stability dG unfold [3]: 0.391 ± 0.062 kcal/mol

Sequence: SAGGKPVRIRSSNGWPIEINPEDGTIKVEFPGYEVEFEVKEDGTIQFQIRNPKDGKPIMPMTLQIEKSAGGS [r16_760_TrROS]
- folding stability dG unfold [1]: 1.07 ± 0.093 kcal/mol
- folding stability dG unfold [2]: 0.694 ± 0.049 kcal/mol
- folding stability dG unfold [3]: 0.98 ± 0.072 kcal/mol

Sequence: SAGGSMPETVKVRVRNADGSLLTLEITRDADGELTVTLEVDGKTVELSLEELEKLPPGVEVVEVEPSAGGSA [r2_431_TrROS_Hall]
- folding stability dG unfold [1]: 2.44 ± 0.087 kcal/mol
- folding stability dG unfold [2]: 1.9 ± 0.087 kcal/mol
- folding stability dG unfold [3]: 2.26 ± 0.18 kcal/mol

Sequence: SAGKINIPPDTDITVKISTEKKPNPPSPEEEEYVGVSYIKVKKNPDGSIEVEEEKFEIISKEEAEKMGLSAG [r5_340_JUSTAS]
- folding stability dG unfold [1]: 0.177 ± 0.31 kcal/mol
- folding stability dG unfold [2]: 0.16 ± 0.13 kcal/mol
- folding stability dG unfold [3]: 0.23 ± 0.28 kcal/mol

Sequence: SAGGMLTLTDPETGVPYTGTPVSTTTTTVVLTTPDGTPVETVTVTVTTYEFTAPDGTPVTLTETTGLSAGGS [r8_214_JUSTAS]
- folding stability dG unfold [1]: 2.27 ± 0.025 kcal/mol
- folding stability dG unfold [2]: 1.75 ± 0.071 kcal/mol
- folding stability dG unfold [3]: 2.08 ± 0.052 kcal/mol

Sequence: SAGGKTIEIEVKVPPGMTEEEVAKKLAEELAKELEKKTGKEIKIEIEKVEKLPNGERKVRIKIEVKPSAGGS [r8_156_TrROS_Hall]
- folding stability dG unfold [1]: 1.8 ± 0.18 kcal/mol
- folding stability dG unfold [2]: 1.42 ± 0.035 kcal/mol
- folding stability dG unfold [3]: 1.74 ± 0.2 kcal/mol

Sequence: SAGGSAPWVTLPIIIMFDSPEQAVEEVKPIFQELFGIKDVNVEEEPMPNGMVFVPIEITIPAENMKSAGGSA [r15_173_TrROS]
- folding stability dG unfold [1]: 1.38 ± 0.07 kcal/mol
- folding stability dG unfold [2]: 0.547 ± 0.061 kcal/mol
- folding stability dG unfold [3]: 1.09 ± 0.092 kcal/mol

Sequence: SAGGSAGGGSMSVSYDPSTGNTITTTTTRSPTPLTTTTTTTTFPDGSTSTSTTTTAAPPPAPTTSAGGSAGG [r6_955_JUSTAS]
- folding stability dG unfold [1]: 0.716 ± 0.024 kcal/mol
- folding stability dG unfold [2]: 0.833 ± 0.029 kcal/mol
- folding stability dG unfold [3]: 0.761 ± 0.046 kcal/mol

Sequence: SAGGSAGGSWVRDADGKPIPFKIDSVETKEENNPNGNRYYEIEARFPDNGKEFKATIPADDIKSAGGSAGGS [r12_823_TrROS]
- folding stability dG unfold [1]: 0.526 ± 0.2 kcal/mol
- folding stability dG unfold [2]: -0.551 ± 0.26 kcal/mol
- folding stability dG unfold [3]: 0.248 ± 0.11 kcal/mol

Sequence: SAGGSAGGSAGGMPPGTVVRSEVVRTETFTETITLPSGETATTTVTTTTTTEVEVEQPLSAGGSAGGSAGGS [r10_297_JUSTAS]
- folding stability dG unfold [1]: 0.469 ± 0.047 kcal/mol
- folding stability dG unfold [2]: 0.233 ± 0.079 kcal/mol
- folding stability dG unfold [3]: 0.54 ± 0.22 kcal/mol

Sequence: SAGGSAGGSAGPFKIEMTFIFKKDNEYYIAKIEIEISPDGYPKMKIEIKKVDINELENYFSAGGSAGGSAGG [r11_690_TrMRF]
- folding stability dG unfold [1]: 4.39 ± 0.14 kcal/mol
- folding stability dG unfold [2]: 2.52 ± 0.15 kcal/mol
- folding stability dG unfold [3]: 4.04 ± 0.4 kcal/mol

Sequence: SEKIKELIKKLAEELNLKIVKIEKKEDGKIIIEFENGIKIEIEIDPEKKNKIKIKIEKTKNGKLKITIEPSA [r9_809_TrROS_Hall]
- folding stability dG unfold [1]: 2.65 ± 0.14 kcal/mol
- folding stability dG unfold [2]: 1.67 ± 0.11 kcal/mol
- folding stability dG unfold [3]: 2.24 ± 0.12 kcal/mol

Sequence: SAGGSAGGGMKITEITIEKDPENPDTYTITIKVDGKTYTITVKKGETLYIFDKDGKLVLEIKVDSAGGSAGG [r6_920_TrROS_Hall]
- folding stability dG unfold [1]: 5.24 ± 0.14 kcal/mol
- folding stability dG unfold [2]: 4 ± 0.41 kcal/mol
- folding stability dG unfold [3]: 5.1 ± 0.25 kcal/mol

Sequence: KIEIVEIKKENGKITIKVKNPIPNAKLIIYLFNPKGEIVSAKTHPGPEVELEIEVPENESFSVLVKLFPPKS [r1_382_TrMRF]
- folding stability dG unfold [1]: 4.24 ± 0.083 kcal/mol
- folding stability dG unfold [2]: 3.35 ± 0.12 kcal/mol
- folding stability dG unfold [3]: 3.99 ± 0.14 kcal/mol

Sequence: SKKVTLPIYFPETGEVVTIDLDELAKALGVDPDKLTLTVVSSGKGRVYRIEVFKDGIRIEEIGDVPPELLSA [r9_819_TrMRF]
- folding stability dG unfold [1]: 2.848 ± 0.017 kcal/mol
- folding stability dG unfold [2]: 2.2 ± 0.03 kcal/mol
- folding stability dG unfold [3]: 2.63 ± 0.05 kcal/mol

Sequence: SAGGSAGGSKKVKIEINVVVPPGMTPEKAKQMAEEFAREIAEAYGGKDVKVKVRIMYIPPDQFSAGGSAGGS [r12_522_TrROS]
- folding stability dG unfold [1]: 2.19 ± 0.066 kcal/mol
- folding stability dG unfold [2]: 2.04 ± 0.084 kcal/mol
- folding stability dG unfold [3]: 2.08 ± 0.13 kcal/mol
